Legend:
[1] = pH optimum / pH-activity profile of dipeptidyl aminopeptidase I with Ala-Pro-pNA; format: biochemical; conditions: for Average Activty: 2 mg/ml Ala-Pro-pNA, ambient temperature, 5 minutes; for Avg. Activity-Background: corrected for autohydrolysis of Ala-Pro-pNA
Procedure: The Ala-Pro-pNA substrate was prepared by dissolving 100 mg of Ala-Pro-pNA in 1 ml of DMSO and adding 20 μl of the Ala-Pro-pNA-DMSO solution to 980 μl of the universal buffer at the various pH values at ambient temperature. The assay was initiated by adding a 10 μl aliquot of the dipeptidyl aminopeptidase I diluted 20-fold in water to 200 μl of 2 mg/ml Ala-Pro-pNA at the various pH values. The absorbance at 405 nm was monitored for 5 minutes. Autohydrolysis of the substrate as a control was determined by adding 10 μl of water to 200 μl of 2 mg/ml Ala-Pro-pNA at the various pH values.

[2] = activity of the purified enzymes on Ala-Pro-pNA; format: biochemical; conditions: purified enzyme; extinction coefficient of 10000
Procedure: A polypeptide of the present invention is added to the proteinaceous substrate in an effective amount conventionally employed in protein hydrolysis processes, preferably in the range of from about 0.1 to about 100,000 dipeptidyl aminopeptidase units (DPAPU) per 100 g of protein, and more preferably in the range of from about 1 to about 10,000 dipeptidyl aminopeptidase units per 100 g of protein. As defined herein, one dipeptidyl aminopeptidase Unit (DPAPU) is the amount of enyzme needed to release 1 micromole of p-nitroanilide per minute from Ala-Pro-p-nitroanilide (Sigma Chemical Co., St. Louis Mo.) under specified conditions.
The sample was then loaded onto a column (XK-26) containing 60 ml of Q-Sepharose Big Beads, which had been pre-equilibrated with 400 ml of 20 mM sodium phosphate pH 7.0 buffer. The column was washed until baseline was reached. […] In a 96 well microtiter plate, 100 μl of the substrate solution was added to 100 μl of Aspergillus oryzae dipeptidyl aminopeptidase I (100 fold diluted in 50 mM sodium phosphate buffer pH 7.5) and the increase in absorbance at 405 nm was measured for 4 minutes using a SpectroMax 340 plate reader (Molecular Devices, Sunnyvale, Calif.). […]
The purified aminopeptidase I was determined to have an activity of 26.822 LAPUs/ml for Leu-pNA using an extinction coefficient of 10,000 for para-nitroaniline at 405 nm. […]

[3] = synergism of aminopeptidase I and dipeptidyl aminopeptidase I on Ala-Phe-Pro-pNA; format: biochemical; conditions: 100-fold diluted enzyme alone, over 10 minutes
Procedure: The substrate was prepared by dissolving 2 mg of Ala-Phe-Pro-pNA (Bachem, Torrance, Calif.) in 20 μl of DMSO. Then, 980 μl of 50 mM sodium phosphate buffer pH 7.5 and 100 μl of ethanol were added. In a 96 well microtiter plate, 100 μl of the Ala-Phe-Pro-pNA solution was added to 100 μl of 100-fold diluted aminopeptidase I (Example 12); 100 μl of the Ala-Phe-Pro-pNA solution was added to 100 μl of 100-fold diluted dipeptidyl aminopeptidase I (Example 11); and 100 μl of the Ala-Phe-Pro-pNA solution was added to a mixture of 50 μl of 100-fold diluted aminopeptidase I and 50 μl of 100-fold diluted dipeptidyl aminopeptidase I. The absorbance at 405 nm was measured for 10 minutes.

[4] = temperature stability of dipeptidyl aminopeptidase I; format: physicochemical; conditions: for Percent activity relative to 37iC.: 20 minutes, pH 7.5, no substrate, assayed with Ala-Pro-pNA
Procedure: The temperature stability of the dipeptidyl aminopeptidase I was determined using the following protocol: 490 μl of 50 mM sodium phosphate buffer pH 7.5 was preincubated at 37 ? , 45 ? , 55 ? , 60 ? , 65 ? , 70 ? , and 75 ? C for 30 minutes in a 1.7 ml Eppendorf tube. Then 10 μl of purified dipeptidyl aminopeptidase I was added and the sample was then incubated for an additional 20 minutes. The samples were then placed on ice. Once the incubations were completed for all the temperatures, the samples were then assayed for activity using Ala-Pro-pNA as substrate.
The assay was performed by mixing 30 μl of the incubation mixtures for the various temperatures with 200 μl of 2 mg/ml Ala-Pro-pNA in 50 mM sodium phosphate pH 7.5 buffer) at ambient temperature. The absorbance at 405 nm was monitored for 5 minutes.

B1: dipeptidyl aminopeptidase I: Recombinant Aspergillus oryzae 1568 (ATCC 20386) dipeptidyl aminopeptidase I, 771 amino acids (SEQ ID NO:2), produced in Fusarium and purified (protein, listed as Aspergillus oryzae)
chain: MKYSKLLLLLVSVVQALDVPRKPHAPTGEGSKRLTFNETVVKQAITPTSRSVQWLSGAEDGSYVYAAEDGSLTIENIVTNESRTLIPADKIPTGKEAFNYWIHPDLSSVLWASNHTKQYRHSFFADYYVQDVESLKSVPLMPDQEGDIQYAQWSPVGNTIAFVRENDLYVWDNGTVTRITDDGGPDMFHGVPDWIYEEEILGDRYALWFSPDGEYLAYLSFNETGVPTYTVQYYMDNQEIAPAYPWELKIRYPKVSQTNPTVTLSLLNIASKEVKQAPIDAFESTDLIIGEVAWLTDTHTTVAAKAFNRVQDQQKVVAVDTASNKATVISDRDGTDGWLDNLLSMKYIGPIKPSDKDAYYIDISDHSGWAHLYLFPVSGGEPIPLTKGDWEVTSILSIDQERQLVYYLSTQHHSTERHLYSVSYSTFAVTPLVDDTVAAYWSASFSANSGYYILTYGGPDVPYQELYTTNSTKPLRTITDNAKVLEQIKDYALPNITYFELPLPSGETLNVMQRLPPGFSPDKKYPILFTPYGGPGAQEVTKRWQALNFKAYVASDSELEYVTWTVDNRGTGFKGRKFRSAVTRQLGLLEAEDQIYAAQQAANIPWIDADHIGIWGWSFGGYLTSKVLEKDSGAFTLGVITAPVSDWRFYDSMYTERYMKTLSTNEEGYETSAVRKTDGFKNVEGGFLIQHGTGDDNVHFQNSAALVDLLMGDGVSPEKLHSQWFTDSDHGISYHGGGVFLYKQLARKLYQEKNRQTQVLMHQWTKKDLEE
[1]; Ala-Pro-pNA as substrate
  pH of optimal activity: ~8.7
[1]; measured pH range
  pH range over which activity toward Ala-Pro-pNA was possessed: 4.35 to 9.83
[1]; pH 4.35
  Average Activty: 8.75 mOD/min
  Avg. Activity-Background: 8.75 mOD/min
[1]; pH 4.35, relative to pH 8.71
  Relative Activty: 0.023
[1]; pH 4.87
  Average Activty: 32.5 mOD/min
  Avg. Activity-Background: 32.5 mOD/min
[1]; pH 4.87, relative to pH 8.71
  Relative Activty: 0.088
[1]; pH 5.36
  Average Activty: 75.75 mOD/min
  Avg. Activity-Background: 75.75 mOD/min
[1]; pH 5.36, relative to pH 8.71
  Relative Activty: 0.20
[1]; pH 5.86
  Average Activty: 113.8 mOD/min
  Avg. Activity-Background: 113.8 mOD/min
[1]; pH 5.86, relative to pH 8.71
  Relative Activty: 0.307
[1]; pH 6.38
  Average Activty: 135.48 mOD/min
  Avg. Activity-Background: 135.48 mOD/min
[1]; pH 6.38, relative to pH 8.71
  Relative Activty: 0.365
[1]; pH 6.85
  Average Activty: 168.45 mOD/min
  Avg. Activity-Background: 166.45 mOD/min
[1]; pH 6.85, relative to pH 8.71
  Relative Activty: 0.45
[1]; pH 7.2
  Average Activty: 188.86 mOD/min
  Avg. Activity-Background: 186.86 mOD/min
[1]; pH 7.2, relative to pH 8.71
  Relative Activty: 0.503
[1]; pH 7.51
  Average Activty: 230.97 mOD/min
  Avg. Activity-Background: 227.97 mOD/min
[1]; pH 7.51, relative to pH 8.71
  Relative Activty: 0.615
[1]; pH 7.97
  Average Activty: 308.52 mOD/min
  Avg. Activity-Background: 302.72 mOD/min
[1]; pH 7.97, relative to pH 8.71
  Relative Activty: 0.817
[1]; pH 8.71
  Relative Activty: 1
  Average Activty: 383.15 mOD/min
  Avg. Activity-Background: 370.65 mOD/min
[1]; pH 9.32
  Average Activty: 247.68 mOD/min
  Avg. Activity-Background: 217.88 mOD/min
[1]; pH 9.32, relative to pH 8.71
  Relative Activty: 0.588
[1]; pH 9.83
  Average Activty: 171 mOD/min
  Avg. Activity-Background: 97 mOD/min
[1]; pH 9.83, relative to pH 8.71
  Relative Activty: 0.261
[2]
  activity for Ala-Pro-pNA: 11.54 DPAPU/ml
[3]
  activity on Ala-Phe-Pro-pNA: no activity
[4]; 37 C
  Percent activity relative to 37iC.: 100%
[4]; 45 C
  Percent activity relative to 37iC.: 103%
[4]; 55 C
  Percent activity relative to 37iC.: 103%
[4]; 65 C
  Percent activity relative to 37iC.: 92.5%
[4]; 70 C
  Percent activity relative to 37iC.: 37.7%
[4]; 75 C
  Percent activity relative to 37iC.: 0.7%
[4]; after a 20 minute incubation at 65 C, pH 7.5
  activity retained: 90%

Reference: patent publication US7098001B2, “Polypeptides having dipeptidyl aminopeptidase activity and nucleic acids encoding same” (Novozymes, Inc., priority 1997, dated 2006)
